# Laboratory results from paper PMC11087589, “Molecular basis of bacterial DSR2 anti-phage defense and viral immune evasion” (Nature Communications, 2024).
# Positions count from the first letter of the chain named. Names may count otherwise.
# B1: Bacillus subtilis DSR2 (defense-associated sirtuin 2), wild type, His-tagged, purified alone (enzyme, UniProt P0DXN8 1-1005, looked up)
# chain: MVKVDLESKRYGEKLKEVFLMLDNNVVECIKEITESSRNGKLVFFVGAGVSTLSDYPQWWRLVDKYHEELYGSPKKGNYSSDEYLRIPQIFYNVKGEMAFDGILKDFFQVDKPTNPIHDKILAMNPAHVITTNYDNLIDTACWKRGKYFSVISAEEDVANATSSRYLLKVHGDFRKGFKGENVVLKEDDYLNYDQNYPLISNLMKTIIATHTIVFIGYGLGDYNINMLLNWVRKLQKDSFHKPFFIRTDPSPIENETLIYYENKGLRIIDAASLIDSNEYDYLERYSAVMDLLIESQENKFITKDDEVIDYIYGKISPLFALQYIRKIDLKHVFEYDYHFEVNGTVVRHKNKGFGYMERFFELKESCDERSKLSKKQYERFNALFNFFEKNGVICMAKDAGTLNTSIEINSLAYHGKYDVMKKFIEEQSVSIEDDYKKAFFLACLGRWEESYDLYSNIILNSIDESNGCVYYLSQINRYRIYQSITQAVTQFNGLGLLTFGRHYKPFTDEFLARIEREMTNFNIDDLFNGMPFEFQKKYKILEFLSDNQFLYDDTVKLFELTNKVRSEMSEGSYSFGMSSDIVVLLRLYDNLRFLYENCLWSVSFHEFHQYIRNSMSLLIEKAEYERTRDIDELGFSFFGKKSGFFMEYYDFVNISRHFKIDDIKNLERSCSIDKIRFGEQEKIEEYLVGIAEEITKQFSANGMNVVFYTQFISEAKAALYFAKYVKLSEEGLGKIVKALLFYFPERDLDIGKRYVWLERLTKCNELPKSIISIIDDFLVLQAEKHIDQNYSEVSSNGLYSRDYGALIKHFEKNFISKRLSEITLCLTQDKQKQIDFLFKLLPLLSTNAKSHLLSFKSVENINDLMNGIRIGLIDEFTPEHEELIIEYLETRKVNYIVEKEKGIQTFSSNDYMSTFGIWYFLEEINNSKMEEFIGMDDQYDFFVDPENFDYKKFIPSWLKNYNDKLLGKIAGNKHMKHHVIEVLKERVKNSNDKRYLEILMNYFI
# notes: Homo-tetramer by cryo-EM and SEC; Cloned into pCDFDuet (BamHI/XhoI); the methods call it His-tagged; also called apo DSR2; apo DSR2 tetramer; source: E. coli BL21(DE3), purified (Ni-NTA, gel filtration on Superdex 200 Increase)
# B2: DSR2^I259S/Y260G (enzyme, Bacillus subtilis, UniProt P0DXN8 1-1005, looked up)
# chain: B1 chain with I259S, Y260G
# notes: Dimer by SEC; also called I259S/Y260G mutant; mutant with disruption at the tetrameric interface; source: E. coli BL21(DE3), purified by a protocol similar to that of the wild type
# B3: DSR2^H171A, catalytic mutant, co-expressed with His6-SUMO-Tube (enzyme, Bacillus subtilis, UniProt P0DXN8 1-1005, looked up)
# chain: B1 chain with H171A
# notes: source: E. coli BL21(DE3), co-expressed with His6-SUMO-Tube; in lysate (pull-down) and purified as the complex (Ni-NTA, Hitrap Q, gel filtration)
# B4: Phage tail tube protein from Siphoviridae SPR, His6-SUMO-tagged (natural protein, Siphoviridae SPR (phage))
# chain: MKTVIQDTADVYFKRKSDGKLVFTAEAQTASFSQAISEEKLRGGIGNKPLYILKSEKEINLTVKNAFFDLEWLAMTQGETIQEETKVKVFDREHGLIVDDTNKVTLKGKPVSDVTFYNKKGLTYKIAVSTDGTYTIPTAFAAAKDKLTAVYQIEKVGRRLAIKASKFSERYEVEYRTIAYNPDTEEVYSDIYIQFPNVSPSGEFEMSLENGNALAPEIKFEALADTDTDEMAVVIEASRDENTAAPVEDTTGSTQSSDLGGTTE
# notes: Purified alone it is a hexamer and filaments of hexamers; in the complex with DSR2^H171A it is a monomer at each corner (4:4); The methods say that His6-SUMO-Tube was purified directly, without removal of the tag; also called His6-SUMO-Tube; HisSUMO-Tube; source: E. coli BL21(DE3); not shown: His6, N-terminal, kept; SUMO, N-terminal, kept
# Assays:
# [1] = biological target: Bacillus subtilis DSR2, wild type, co-expressed with His6-SUMO-DSAD1 (Bacillus subtilis); experiment: cryo-EM structure; DSR2-DSAD1 complex co-expressed and purified, 1.2 mg/mL; 3.49 Å after focus refinement
# [2] = biological target: DSAD1 (DSR anti-defense 1) from Siphoviridae SPbeta, His6-SUMO-tagged, co-expressed with DSR2 (Siphoviridae SPbeta (phage)) (UniProt Q796A8); experiment: as above
# [3] = biological target: the molecule itself; experiment: cryo-EM structure; apo DSR2 tetramer, 1.5 mg/mL, 4.15 Å after focus refinement
# [4] = biological target: the molecule itself; experiment: SEC; oligomeric state of purified DSR2, its mutants and the DSR2^H171A-Tube complex; Superdex 200 Increase 10/300 GL, 25 mM Tris-HCl pH 7.5, 150 mM NaCl
# [5] = biological target: B4; experiment: cryo-EM structure; DSR2^H171A-Tube complex co-expressed and purified, 2 mg/mL, 1 mM NAD+ added; 3.58 Å, local refinement 3.08 Å; details: both partners purified
# [6] = biological target: the molecule itself; experiment: SEC + other: cryo-EM 2D class averages; purified His6-SUMO-Tube alone
molecule,measurement,setting,value
"Bacillus subtilis DSR2, wild type, co-expressed with His6-SUMO-DSAD1 (enzyme)",stoichiometry N,[1],4
same,stoichiometry N (DSAD1:DSR2 (2:4)),[2],0.5
B1,stoichiometry N,[3],4
B2,stoichiometry N,[4],2
B3,stoichiometry N,[5],1 DSR2:Tube (4:4)
same,stoichiometry N,[4],4
B4,stoichiometry N,[6],6
